This is an account of results in PMC6108940 (Cell, 2018).

Test [1] addresses yeast COMPASS catalytic module (Set1-Swd1-Swd3-Bre2-Sdc1) (Kluyveromyces lactis, UniProt Q6CIT4). Kind of test: H3K4 methylation of nucleosomes, western blot. The class given is biochemical. The conditions noted are these: 0.2 mM SAM, 1 uM enzyme, 0.5 uM nucleosomes, pH 7.5, 30 C, 30 min. (In general: A western blot detects proteins with antibodies after separation by electrophoresis.)

In test [2] the target is K. lactis Bre2 (crystallised construct) (K. lactis). Kind of test: crystal structure.
The target in test [3] is K. lactis Sdc1 (crystallised construct) (K. lactis). In words: crystal structure.

In the case of `C[S+](CC[C@H](N)C(=O)O)C[C@H]1O[C@@H](n2cnc3c(N)ncnc32)[C@H](O)[C@@H]1O` (stereo partly drawn) [SAM], the “H3K4 methylation of nucleosomes, western blot” value in test [1] is listed as “alanine mutation of Trp197 drastically compromised the catalytic activity of Set1”.

With “K. lactis Sdc1 (crystallised construct) (natural protein)”, the stoichiometry N in test [2] and in test [3] was 2 throughout.
